# Results as given in patent US20140323392A1 (UNIVERSITY OF UTAH RESEARCH FOUNDATION, published 2014).
# Like-named read-outs stand apart in the source and are kept apart here. Bridges are numbered along the chain shown (N, C = ends). Roman numbers before positions name the chains, in order. Where no end group is shown, it is not given here. [ ]: non-standard residue; d: D form.
# Assays:
# Assay in all cases: cell-based or functional assay
# [1] = molecular target: T1, HIV-1 HXB2 envelope glycoprotein gp41 (N-trimer of the prehairpin intermediate) (HIV-1 strain HXB2, UniProt P04578 512-856)
# [2] = molecular target: T1, HIV-1 HXB2 envelope glycoprotein gp41 …; remark: listed apart in the source
# [3] = molecular target: T1, HIV-1 HXB2 envelope glycoprotein gp41 …; remark: listed apart in the source
# [4] = molecular target: T2, HIV-1 JRFL envelope glycoprotein gp41 (N-trimer of the prehairpin intermediate) (HIV-1 strain JRFL)
# [5] = molecular target: T2, HIV-1 JRFL envelope glycoprotein gp41 …; remark: listed apart in the source
# [6] = molecular target: T1, HIV-1 HXB2 envelope glycoprotein gp41 …; remark: listed apart in the source
# [7] = molecular target: HIV-1 HXB2 envelope glycoprotein gp41 with resistance mutation Q577R (HIV-1 strain HXB2, UniProt P04578 33-856)
# [8] = molecular target: HIV-1 HXB2 envelope glycoprotein gp41 with resistance mutations E560K/V570I (HIV-1 strain HXB2, UniProt P04578 33-856)
Binder,"IC50, HXB2 pseudovirion entry [1] [nM]","IC50, HXB2 pseudovirion entry [3] [nM]","IC50, JRFL pseudovirion entry [4] [nM]","IC50, JRFL pseudovirion entry [5] [nM]",also measured
[dC][dD][dY][dP][dE][dW][dQ][dW][dL][dC][dE][dL]G[dK] (disulfide 1-10 (inferred)) [ΔHP-PIE12],3100,,,,fold loss of potency against PIE12 [2]: 84 fold
Ac-[dH][dP][dC][dD][dY][dP][dE][dW][dQ][dW][dL][dC][dE][dL]GK-NH2 (disulfide 3-12 (inferred); not fully specified (residue 16)) [Chol-PEG2-PIE12 (monomer)],69,58,,,
Ac-[dH][dP][dC][dD][dY][dP][dE][dW][dQ][dW][dL][dC][dE][dL]GK-NH2 (disulfide 3-12 (inferred); not fully specified (residue 16)) [Chol-PEG12-PIE12 (monomer)],12,11,200,,
Ac-[dH][dP][dC][dD][dY][dP][dE][dW][dQ][dW][dL][dC][dE][dL]GK-NH2 (disulfide 3-12 (inferred); not fully specified (residue 16)) [Chol-PEG24-PIE12 (monomer)],0.64,0.4,,,
[dC][dD][dY][dP][dE][dW][dQ][dW][dL][dC][dE][dL]GK (disulfide 1-10 (inferred); not fully specified (residue 14); also: homotrimer on trimethylolethane-triNHS ester scaffold) [PEG5-ΔHP-PIE12-trimer],380,,,,
Ac-[dH][dP][dC][dD][dY][dP][dE][dW][dQ][dW][dL][dC][dE][dL]G[dK]-NH2 (disulfide 3-12 (inferred)) [PIE12],,,580,578,
"Ac-[dK]G[dA][dC][dD][dY][dP][dE][dW][dQ][dW][dL][dC][dA][dA]-NH2 (disulfide 4-13 (inferred); also: dimer, N- to N-terminal Lys crosslinked by Bis-dPEG9 NHS ester) [N9N(PIE7)2]",,,,2300,"IC50, HXB2 pseudovirion entry [6]: 1.9 nM; fold improvement of IC50 over the corresponding monomer [2]: ~325 fold"
"C5C-PIE12-trimer (disulfide I:3-I:12, II:3-II:12 (inferred); also: trimer: C-terminal Lys linked by PEG5 spacers) peptide 1: Ac-[dH][dP][dC][dD][dY][dP][dE][dW][dQ][dW][dL][dC][dE][dL]G[dK]-NH2 peptide 2: Ac-[dH][dP][dC][dD][dY][dP][dE][dW][dQ][dW][dL][dC][dE][dL]G[dK][dK]-NH2",,0.33,2.8,2.8,"IC50, Q577R HXB2 pseudovirion entry [7]: 2960 nM; IC50, E560K/V570I HXB2 pseudovirion entry [8]: 0.84 nM"
"Ac-[dK]G[dA][dC][dD][dY][dP][dE][dW][dR][dW][dL][dC][dA][dA][dA]-NH2 (disulfide 4-13 (inferred); also: dimer, Lys crosslinked by PEG) [PEG-(PIE2-AAA)2]",,,,,"IC50, pseudovirion entry [2]: 21 nM; fold improvement of IC50 over the corresponding monomer [2]: ~70 fold"
"Ac-[dH][dP][dC][dD][dY][dP][dE][dW][dQ][dW][dL][dC][dE][dL]GK-NH2 (disulfide 3-12 (inferred); not fully specified (residue 16); also: trimer on scaffold via PEG4, fourth arm PEG36 (PEG24 + PEG12 through D-Cys) carrying thiocholesterol) [Chol-PEG36-PIE12-trimer]",,0.0054,,,"IC50, Q577R HXB2 pseudovirion entry [7]: 2.7 nM; IC50, E560K/V570I HXB2 pseudovirion entry [8]: 0.0045 nM"
